From publication PMC4033627 (Biochemistry, 2014) come the findings set out here.

Substitutions are numbered along the chain they refer to.

In test [1] the target is ubiquitin (from a pRSETA plasmid, for isothermal titration calorimetry) (UniProt P0CG48 1-76). The experiment in a line: ITC.
In test [2] the target is human ubiquitin (from pGEX-6P1) (human, UniProt P0CG48 1-76). Nature of the test: crystal structure.

B1: catalytic domain of Sst2 (residues 245–435), Sst2^cat (domain or fragment)
chain: AGTFKIHAYTEGGKPLRTIYLPKLLKKVFLDVVKPNTKKNLETCGILCGKLRQNAFFITHLVIPLQEATSDTCGTTDEASLFEFQDKHNLLTLGWIHTHPTQTCFMSSVDLHTHCSYQLMLPEAIAIVMAPSKNTSGIFRLLDPEGLQTIVKCRKPGLFHPHEGKVYTMVAQPGHVREINSKLQVVDLRVK
For orientation: Kd means the free concentration of one partner at which half of the binding sites on the other are occupied at equilibrium, for simple one-to-one binding. Read a high Kd as weaker binding. In turn, B1 returned a Kd in test [1] of 10.2 ± 0.6 µM.

B2: Sst2^catD354A (Asp354Ala mutant of the catalytic domain of Sst2) (domain or fragment)
chain: B1 chain with D110A
As for B2, the binding result in test [2] is on record as “binds”.

B3: Sst2^catE286A (Glu286Ala mutant of the catalytic domain of Sst2) (domain or fragment)
chain: B1 chain with E42A
Molecule B3 returned a Kd in test [1] of 3 ± 0.56 µM.
